Results published in patent publication CN113817050A (WUHAN INST OF BIOLOGICAL PRODUCTS CO LTD, dated 2021).

Tests used:
[1] = target: SARS-CoV-2 RBD结构域重组蛋白(Sino公司，货号40592-V05H) (SARS-CoV-2 (2019-nCoV), UniProt P0DTC2 319-541)
[2] = target: SARS-CoV-2刺突S1亚基蛋白(Sino公司，货号:40591-V02H) (SARS-CoV-2 (2019-nCoV), UniProt P0DTC2 16-685)
[3] = target: T1, SARS-CoV-2刺突S1-His重组蛋白(Sino公司，货号:40591-V08H) (SARS-CoV-2 (2019-nCoV), UniProt P0DTC2 16-685); assay: ELISA, S1-His coated at 1.0 μg/mL, detection by goat anti-human IgG-HRP
T1 construct: domain: S1; also called S1蛋白; 刺突蛋白S1

B1: 抗SARS-CoV-2的单克隆抗体1H8 (antibody, V domains shown)
VH: EVQLVESGGGLVQPGGSLRLSCAASEITVSSNYMNWVRQAPGKGLEWVSVIYSGGTTYYADSVKGRFTISRDNSENTLYLQMNSLRAEDTAVYYCARDLMEVGGMDVWGQGTTVTVSS
VL: DIVMTQSPSSLSASVGDRVTITCRASQGVSNYLAWYQQKPGKVPKLLIYAASTLQSGVPSRFSGSRSGTDFTLTISSLQPEDVATYYCQNYNSAPFAFGPGTKVEIK
notes: also called 人源抗SARS-CoV-2抗体1H8; 1H8抗体
[1]
  EC50: 0.035 nM
  IC50: 3.6 nM
[2]
  IC50: 5.76 nM
[3]
  EC50: 0.054 nM
